Blank lines part the entries; values can stand above or below the binder they belong to.
What was measured:
[1] = target: T1, endogenous mouse IRF3 (mouse (endogenous in peritoneal macrophages)), P70671; experiment: native gel or EMSA; S5 fractions of stimulated cells on 9% native PAGE (0.4% Doc-Na in running buffer, 4 °C); immunoblot of IRF3; details: remark: other sources report otherwise
T1 chain: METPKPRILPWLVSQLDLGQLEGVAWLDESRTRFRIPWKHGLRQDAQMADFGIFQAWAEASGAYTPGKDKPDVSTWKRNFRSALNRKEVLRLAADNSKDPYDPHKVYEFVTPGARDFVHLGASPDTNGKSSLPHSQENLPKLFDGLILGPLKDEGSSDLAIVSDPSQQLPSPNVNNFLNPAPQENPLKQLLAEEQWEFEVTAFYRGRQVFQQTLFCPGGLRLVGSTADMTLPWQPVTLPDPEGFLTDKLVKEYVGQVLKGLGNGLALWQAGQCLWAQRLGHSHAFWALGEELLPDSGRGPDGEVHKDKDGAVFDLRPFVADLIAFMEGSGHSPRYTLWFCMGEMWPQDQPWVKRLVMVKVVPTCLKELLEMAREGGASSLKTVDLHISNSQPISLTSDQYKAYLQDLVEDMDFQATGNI

[2] = target: T2, endogenous IRF3 (human (endogenous in HEK293)), Q14653; experiment: as above; details: remark: other sources report otherwise
T2 chain: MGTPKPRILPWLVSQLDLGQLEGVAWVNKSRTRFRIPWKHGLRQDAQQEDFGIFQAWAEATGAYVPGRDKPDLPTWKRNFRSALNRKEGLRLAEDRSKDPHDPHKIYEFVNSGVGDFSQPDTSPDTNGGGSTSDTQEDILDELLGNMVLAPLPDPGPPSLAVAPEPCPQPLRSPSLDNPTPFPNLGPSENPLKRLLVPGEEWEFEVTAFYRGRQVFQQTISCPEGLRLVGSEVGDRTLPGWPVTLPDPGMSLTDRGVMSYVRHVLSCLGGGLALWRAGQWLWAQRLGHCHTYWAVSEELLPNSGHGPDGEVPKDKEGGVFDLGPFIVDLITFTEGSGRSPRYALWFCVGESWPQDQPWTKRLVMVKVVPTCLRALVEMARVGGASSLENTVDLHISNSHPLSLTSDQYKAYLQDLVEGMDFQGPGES

stoichiometry N [1]: 2
B1: endogenous mouse IRF3, P70671 1-419 (natural protein)
chain: T1 chain

stoichiometry N [2]: 2
B2: endogenous IRF3, Q14653 1-427 (natural protein)
chain: T2 chain
